Experiments:
human Hsp90α = biological target: T1, human Hsp90α (human, UniProt P07900-1 1-732); assay: SEC; chaperone and cochaperone at 2.5 µM, 10 min at 30°C following 10 min on ice, 40 mM Hepes-KOH pH 7.4, 50 mM KCl, 2 mM Mg2Cl; Superdex 200 HR 10/30 in the same buffer; fractions analysed by SDS-PAGE (Western blot for Aha1 and Cdc37 in the Hsp103 runs); shift of the cochaperone to higher molecular mass; conditions: both partners purified
T1 construct: human Hsp90α (Hsp90AA1-1), canonical isoform, 732 aa as printed; also called Hsp90AA1-1; heat shock protein 90

human Hsp103 = biological target: T2, human Hsp103 (human, UniProt P07900-2 1-854); assay: as above; conditions: both partners purified
T2 construct: human Hsp103, the isoform of Hsp90α with an additional 122 aa (E domain) at the N-terminus; printed length 854 aa (also printed as 852 aa for Hsp90AA1-2); also called Hsp90AA1-2; Hsp90α with extra E domain

- binding result (human Hsp90α): binds
- binding result (human Hsp103): binds
B1: human Cdc37 (natural protein, UniProt Q16543 1-378, looked up)
chain: MVDYSVWDHIEVSDDEDETHPNIDTASLFRWRHQARVERMEQFQKEKEELDRGCRECKRKVAECQRKLKELEVAEGGKAELERLQAEAQQLRKEERSWEQKLEEMRKKEKSMPWNVDTLSKDGFSKSMVNTKPEKTEEDSEEVREQKHKTFVEKYEKQIKHFGMLRRWDDSQKYLSDNVHLVCEETANYLVIWCIDLEVEEKCALMEQVAHQTIVMQFILELAKSLKVDPRACFRQFFTKIKTADRQYMEGFNDELEAFKERVRGRAKLRIEKAMKEYEEEERKKRLGPGGLDPVEVYESLPEELQKCFDVKDVQMLQDAISKMDPTDAKYHMQRCIDSGLWVPNSKASEAKEGEEAGPGDPLLEAVPKTGDEKDVSV
notes: human Cdc37, cochaperone of Hsp90

Reference: article PMC3739785, “A Primate Specific Extra Domain in the Molecular Chaperone Hsp90” (PLoS ONE, 2013)
